According to patent publication US20140087995A1 (published 2014):
Numbered stars: 1 amine (or outer) side, 2 acyl side, 3 side chain; on linkers, the order of the positions; unused ones are H or OH. Bridge positions count the residues as written; N and C are the ends. Side chains are listed from the residue outwards. Ends that are not written are not given here. * marks the point of attachment. C20 diacid = O=C(O)CCCCCCCCCCCCCCCCCCC(=O)*; γGlu = O=C(O)[C@H](CCC(=O)[*:2])N[*:1]

B1: N^ε1-[(4S)-4-carboxy-4-[[(4S)-4-carboxy-4-(19-carboxynonadecanoylamino)butanoyl]amino]butanoyl]-[Glu14,Arg17,Pro21,Pro27,Pro34,Glu35,Pro37]-h-amylin (peptide)
peptide: K([γGlu-γGlu-C20 diacid])CNTATCATQRLAEFLRHSSPNFGAIPSSTNVGPETP-NH2
modifications: disulfide 2-7; N-terminus assumed
SMILES: CC[C@H](C)[C@H](NC(=O)[C@H](C)NC(=O)CNC(=O)[C@H](Cc1ccccc1)NC(=O)[C@H](CC(N)=O)NC(=O)[C@@H]1CCCN1C(=O)[C@H](CO)NC(=O)[C@H](CO)NC(=O)[C@H](Cc1c[nH]cn1)NC(=O)[C@H](CCCNC(=N)N)NC(=O)[C@H](CC(C)C)NC(=O)[C@H](Cc1ccccc1)NC(=O)[C@H](CCC(=O)O)NC(=O)[C@H](C)NC(=O)[C@H](CC(C)C)NC(=O)[C@H](CCCNC(=N)N)NC(=O)[C@H](CCC(N)=O)NC(=O)[C@@H](NC(=O)[C@H](C)NC(=O)[C@@H]1CSSC[C@H](NC(=O)[C@@H](N)CCCCNC(=O)CC[C@H](NC(=O)CC[C@H](NC(=O)CCCCCCCCCCCCCCCCCCC(=O)O)C(=O)O)C(=O)O)C(=O)N[C@@H](CC(N)=O)C(=O)N[C@@H]([C@@H](C)O)C(=O)N[C@@H](C)C(=O)N[C@@H]([C@@H](C)O)C(=O)N1)[C@@H](C)O)C(=O)N1CCC[C@H]1C(=O)N[C@@H](CO)C(=O)N[C@@H](CO)C(=O)N[C@H](C(=O)N[C@@H](CC(N)=O)C(=O)N[C@H](C(=O)NCC(=O)N1CCC[C@H]1C(=O)N[C@@H](CCC(=O)O)C(=O)N[C@H](C(=O)N1CCC[C@H]1C(N)=O)[C@@H](C)O)C(C)C)[C@@H](C)O
B2: N^ε1-[(4S)--4-carboxy-4-(19-carboxynonadecanoylamino)butanoyl]-[Glu14,Arg17,Pro21,Pro27,Pro37]-h-amylin (peptide)
peptide: K([γGlu-C20 diacid])CNTATCATQRLAEFLRHSSPNFGAIPSSTNVGSNTP-NH2
modifications: disulfide 2-7; N-terminus assumed
SMILES: CC[C@H](C)[C@H](NC(=O)[C@H](C)NC(=O)CNC(=O)[C@H](Cc1ccccc1)NC(=O)[C@H](CC(N)=O)NC(=O)[C@@H]1CCCN1C(=O)[C@H](CO)NC(=O)[C@H](CO)NC(=O)[C@H](Cc1c[nH]cn1)NC(=O)[C@H](CCCNC(=N)N)NC(=O)[C@H](CC(C)C)NC(=O)[C@H](Cc1ccccc1)NC(=O)[C@H](CCC(=O)O)NC(=O)[C@H](C)NC(=O)[C@H](CC(C)C)NC(=O)[C@H](CCCNC(=N)N)NC(=O)[C@H](CCC(N)=O)NC(=O)[C@@H](NC(=O)[C@H](C)NC(=O)[C@@H]1CSSC[C@H](NC(=O)[C@@H](N)CCCCNC(=O)CC[C@H](NC(=O)CCCCCCCCCCCCCCCCCCC(=O)O)C(=O)O)C(=O)N[C@@H](CC(N)=O)C(=O)N[C@@H]([C@@H](C)O)C(=O)N[C@@H](C)C(=O)N[C@@H]([C@@H](C)O)C(=O)N1)[C@@H](C)O)C(=O)N1CCC[C@H]1C(=O)N[C@@H](CO)C(=O)N[C@@H](CO)C(=O)N[C@H](C(=O)N[C@@H](CC(N)=O)C(=O)N[C@H](C(=O)NCC(=O)N[C@@H](CO)C(=O)N[C@@H](CC(N)=O)C(=O)N[C@H](C(=O)N1CCC[C@H]1C(N)=O)[C@@H](C)O)C(C)C)[C@@H](C)O
notes: also called compound 12

Legend:
[1] = target: T1, human calcitonin receptor (human, UniProt P30988 25-474); test: cell-based or functional assay
T1 sequence (looked up): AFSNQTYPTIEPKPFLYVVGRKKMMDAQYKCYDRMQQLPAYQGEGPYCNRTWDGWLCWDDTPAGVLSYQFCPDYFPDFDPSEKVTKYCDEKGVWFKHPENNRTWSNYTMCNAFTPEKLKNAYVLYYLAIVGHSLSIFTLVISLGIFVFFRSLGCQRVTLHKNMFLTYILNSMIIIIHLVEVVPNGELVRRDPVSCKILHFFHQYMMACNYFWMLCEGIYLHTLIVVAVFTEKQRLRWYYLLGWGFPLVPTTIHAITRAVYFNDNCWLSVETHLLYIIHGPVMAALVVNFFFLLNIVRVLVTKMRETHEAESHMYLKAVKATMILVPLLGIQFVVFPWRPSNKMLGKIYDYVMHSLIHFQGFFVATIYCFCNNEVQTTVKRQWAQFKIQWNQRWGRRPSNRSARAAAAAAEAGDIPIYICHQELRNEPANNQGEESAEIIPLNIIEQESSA

[2] = target: T2, human amylin 3(a) receptor (human calcitonin receptor + RAMP-3) (human, UniProt P30988 25-474; O60896 24-148, limits assumed); test: cell-based or functional assay
T2 sequence (looked up) 1: T1 sequence (looked up)
T2 sequence (looked up) 2: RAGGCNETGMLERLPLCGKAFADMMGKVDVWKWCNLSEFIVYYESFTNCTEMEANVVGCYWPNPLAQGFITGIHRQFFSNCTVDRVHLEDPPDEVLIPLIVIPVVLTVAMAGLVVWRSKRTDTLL

Row | Binder | Ratio hCT/hAmylin funct. [1] | hCTR funct. EC50 (pM) [1] [pM] | hAmylin-R funct. EC50 (pM) [2] [pM]
1 | B1 | 0.8 | 102 | 132
2 | B2 | 1.8 |  | 101
